Results on 32 molecules are retold here after article PMC10786891, “Massively parallel profiling of RNA-targeting CRISPR-Cas13d”.

T1: EsCas13d, nuclease-dead (Eubacterium siraeum, UniProt B0MS50, R295A;H300A;R849A;H854A)
T1 sequence: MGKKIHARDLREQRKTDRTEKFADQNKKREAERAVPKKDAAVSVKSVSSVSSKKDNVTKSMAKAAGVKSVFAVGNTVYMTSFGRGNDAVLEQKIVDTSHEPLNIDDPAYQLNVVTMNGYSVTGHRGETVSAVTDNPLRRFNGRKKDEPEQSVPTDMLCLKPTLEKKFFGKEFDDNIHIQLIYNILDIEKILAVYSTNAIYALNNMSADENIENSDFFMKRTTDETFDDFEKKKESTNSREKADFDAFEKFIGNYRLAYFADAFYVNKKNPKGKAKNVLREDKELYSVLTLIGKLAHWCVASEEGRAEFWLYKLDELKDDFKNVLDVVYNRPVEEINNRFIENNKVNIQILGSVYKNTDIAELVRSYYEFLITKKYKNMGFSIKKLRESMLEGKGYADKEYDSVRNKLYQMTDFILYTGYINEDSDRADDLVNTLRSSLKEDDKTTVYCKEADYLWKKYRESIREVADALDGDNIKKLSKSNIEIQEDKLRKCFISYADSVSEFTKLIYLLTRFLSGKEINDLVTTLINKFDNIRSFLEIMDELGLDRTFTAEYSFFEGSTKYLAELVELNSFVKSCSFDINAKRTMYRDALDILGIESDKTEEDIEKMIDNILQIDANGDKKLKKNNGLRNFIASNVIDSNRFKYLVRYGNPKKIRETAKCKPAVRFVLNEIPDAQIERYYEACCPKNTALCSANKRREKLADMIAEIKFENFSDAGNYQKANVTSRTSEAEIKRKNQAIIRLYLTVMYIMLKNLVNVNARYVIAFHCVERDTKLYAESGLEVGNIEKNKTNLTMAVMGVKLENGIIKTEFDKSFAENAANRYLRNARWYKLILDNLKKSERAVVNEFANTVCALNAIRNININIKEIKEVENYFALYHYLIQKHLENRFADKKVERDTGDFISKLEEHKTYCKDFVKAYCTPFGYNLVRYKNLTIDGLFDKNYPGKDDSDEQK

B1: target 1 MT 5'PFS AAU 3'PFS AUC (mixed)
RNA 1: CACCCGUGCAAAAAUGCAGGGGUCUAAAACUGAGCGGAUAACCUCUCUAUGG
RNA 2: GGGAAUGGAUCCACAUCUACGAAUUCAAUCCAUAGAGAGGUUAUCCGCUCAAUCAGAUCGGAAGAGCACACGU
B2: target 1 MT 5'PFS GGC 3'PFS UCC (mixed)
RNA 1: B1 RNA 1
RNA 2: B1 RNA 2 with A27G, A28G, U29C, A52U, U53C
B3: target 1 MT 5'PFS UAA 3'PFS CUC (mixed)
RNA 1: B1 RNA 1
RNA 2: B1 RNA 2 with A27U, U29A, A52C
B4: target 1 MT 5'PFS CCU 3'PFS CUU (mixed)
RNA 1: B1 RNA 1
RNA 2: B1 RNA 2 with A27C, A28C, A52C, C54U
B5: target 1 MT 5'PFS UGA 3'PFS CCG (mixed)
RNA 1: B1 RNA 1
RNA 2: B1 RNA 2 with A27U, A28G, U29A, A52C, U53C, C54G
B6: target 1 MT 5'PFS UCA 3'PFS CUC (mixed)
RNA 1: B1 RNA 1
RNA 2: B1 RNA 2 with A27U, A28C, U29A, A52C
B7: target 1 U11C,A18C (mixed)
RNA 1: B1 RNA 1
RNA 2: B1 RNA 2 with A27G, A28U, U29A, A34C, U41C, A52C, U53C, C54G
B8: target 1 MT 5'PFS CCU 3'PFS CUG (mixed)
RNA 1: B1 RNA 1
RNA 2: B1 RNA 2 with A27C, A28C, A52C, C54G
B9: target 1 MT 5'PFS UCA 3'PFS CUA (mixed)
RNA 1: B1 RNA 1
RNA 2: B1 RNA 2 with A27U, A28C, U29A, A52C, C54A
B10: target 1 MT 5'PFS UAA 3'PFS CUU (mixed)
RNA 1: B1 RNA 1
RNA 2: B1 RNA 2 with A27U, U29A, A52C, C54U
B11: target 1 insA 3' of 17,insU 3' of 5 (mixed)
RNA 1: B1 RNA 1
RNA 2: GGGAAUGGAUCCACAUCUACGAAUUCGUACCAUAGAAGAGGUUAUCCGUCUCACCGAGAUCGGAAGAGCACACGU
B12: target 1 MT 5'PFS GGC 3'PFS UCA (mixed)
RNA 1: B1 RNA 1
RNA 2: B1 RNA 2 with A27G, A28G, U29C, A52U, U53C, C54A
B13: target 1 MT 5'PFS UGA 3'PFS CCU (mixed)
RNA 1: B1 RNA 1
RNA 2: B1 RNA 2 with A27U, A28G, U29A, A52C, U53C, C54U
B14: target 1 MT 5'PFS GUU 3'PFS UUA (mixed)
RNA 1: B1 RNA 1
RNA 2: B1 RNA 2 with A27G, A28U, A52U, C54A
B15: target 1 MT 5'PFS UAA 3'PFS CUG (mixed)
RNA 1: B1 RNA 1
RNA 2: B1 RNA 2 with A27U, U29A, A52C, C54G
B16: target 1 MT 5'PFS UGC 3'PFS CAA (mixed)
RNA 1: B1 RNA 1
RNA 2: B1 RNA 2 with A27U, A28G, U29C, A52C, U53A, C54A
B17: target 1 MT 5'PFS GUU 3'PFS AUC (mixed)
RNA 1: B1 RNA 1
RNA 2: B1 RNA 2 with A27G, A28U
B18: target 1 MT 5'PFS UAG 3'PFS UAU (mixed)
RNA 1: B1 RNA 1
RNA 2: B1 RNA 2 with A27U, U29G, A52U, U53A, C54U
B19: target 1 MT 5'PFS UAG 3'PFS UAG (mixed)
RNA 1: B1 RNA 1
RNA 2: B1 RNA 2 with A27U, U29G, A52U, U53A, C54G
B20: target 1 MT 5'PFS GGC 3'PFS UCU (mixed)
RNA 1: B1 RNA 1
RNA 2: B1 RNA 2 with A27G, A28G, U29C, A52U, U53C, C54U
B21: target 1 MT 5'PFS GUU 3'PFS UUC (mixed)
RNA 1: B1 RNA 1
RNA 2: B1 RNA 2 with A27G, A28U, A52U
B22: target 1 MT 5'PFS ACG 3'PFS AAG (mixed)
RNA 1: B1 RNA 1
RNA 2: B1 RNA 2 with A28C, U29G, U53A, C54G
B23: target 1 MT 5'PFS ACA 3'PFS ACA (mixed)
RNA 1: B1 RNA 1
RNA 2: B1 RNA 2 with A28C, U29A, U53C, C54A
B24: target 1 MT 5'PFS UAC 3'PFS ACU (mixed)
RNA 1: B1 RNA 1
RNA 2: B1 RNA 2 with A27U, U29C, U53C, C54U
B25: target 1 MT 5'PFS ACA 3'PFS ACC (mixed)
RNA 1: B1 RNA 1
RNA 2: B1 RNA 2 with A28C, U29A, U53C
B26: target 1 MT 5'PFS UAG 3'PFS UAC (mixed)
RNA 1: B1 RNA 1
RNA 2: B1 RNA 2 with A27U, U29G, A52U, U53A
B27: target 1 MT 5'PFS GGC 3'PFS UCG (mixed)
RNA 1: B1 RNA 1
RNA 2: B1 RNA 2 with A27G, A28G, U29C, A52U, U53C, C54G
B28: target 1 MT 5'PFS GUU 3'PFS UUG (mixed)
RNA 1: B1 RNA 1
RNA 2: B1 RNA 2 with A27G, A28U, A52U, C54G
B29: target 1 MT 5'PFS UGC 3'PFS CAC (mixed)
RNA 1: B1 RNA 1
RNA 2: B1 RNA 2 with A27U, A28G, U29C, A52C, U53A
B30: target 1 MT 5'PFS ACA 3'PFS ACU (mixed)
RNA 1: B1 RNA 1
RNA 2: B1 RNA 2 with A28C, U29A, U53C, C54U
B31: target 1 insU 3' of 22,insG 3' of 16 (mixed)
RNA 1: B1 RNA 1
RNA 2: GGGAAUGGAUCCACAUCUACGAAUUCGUACUCAUAGAGGAGGUUAUCCGCUCACCGAGAUCGGAAGAGCACACGU
B32: target 1 MT 5'PFS ACG 3'PFS UUG (mixed)
RNA 1: B1 RNA 1
RNA 2: B1 RNA 2 with A28C, U29G, A52U, C54G

Changes are numbered by the printed parent chain. Names may count otherwise.

The data set concerns the target T1, EsCas13d, nuclease-dead. The data set is described as follows: crRNA (strand 1, pre-loaded); Mg2+; 40 mM Tris-HCl pH 7.5, 150 mM NaCl, 6 mM MgCl2, 1 mM DTT, 0.1% Tween-20, 0.2 mg/ml BSA; 25 C; 10 min per concentration, then washed. The following applies: tags: His6-TwinStrep-SUMO cleaved; N-terminal SNAP kept (SNAP-Surface 488); label: 3' end held by stalled T7 RNA polymerase.
In turn, B1 yielded a dissociation constant (Kd) of 28.5 ± 12 nM.

Molecule B2 gave a Kd of 17.8 ± 2.5 nM.

Consider B3, for which the Kd was 74 ± 28 nM.

On to B4, for which the Kd came to 6.65 ± 1.95 nM.

Molecule B5 showed a Kd of around 42.5 nM.

B6: the Kd was 12.9 ± 3.1 nM.

Take B7: binding was characterised by a dissociation constant (Kd) of 75 ± 10 nM.

B8 had a Kd of 21 ± 7 nM. Compared with the last molecule, the Kd is about 3.6-fold lower.

In the case of B9, binding was characterised by a dissociation constant (Kd) of 9.45 ± 2.55 nM.

As for B10, the Kd stood at 48 ± 19 nM.

In the case of B11, the equilibrium dissociation constant (Kd) was found to be 25.8 ± 2.8 nM.

For the molecule B12, the Kd worked out at 17.1 ± 3.7 nM.

Consider B13, for which the Kd is 36 ± 15 nM.

Molecule B14 displayed a Kd of 13.1 ± 2.5 nM. Compared with the last molecule, the Kd is about 2.7-fold lower.

In the case of B15, the Kd is 25.8 ± 5.25 nM.

The molecule B16 had a Kd of 63 ± 28.5 nM.

B17 returned a Kd of 19.3 ± 3.55 nM. Against the preceding molecule, the Kd is about 3.3-fold lower.

B18 returned a Kd of 45 ± 9 nM.

On to B19, for which binding was characterised by a dissociation constant (Kd) of 73.5 ± 28 nM.

The molecule B20 showed a Kd of 10 ± 1.2 nM.

Molecule B21 yielded a Kd of 10.6 ± 1.45 nM.

Consider B22, for which the Kd came to 26.5 ± 11 nM.

B23: the Kd was around 31 nM.

The molecule B24 yielded a Kd of 11.2 ± 3.5 nM.

In the case of B25, the Kd was around 47.5 nM.

Take B26: the Kd stood at 16.8 ± 2.05 nM.

Regarding B27, binding was characterised by a dissociation constant (Kd) of 11.1 ± 1.15 nM. Against the preceding molecule, the Kd is about 1.5-fold lower.

As for B28, the affinity, expressed as Kd, was 11.1 ± 1.05 nM.

With B29, the dissociation constant Kd was around 65 nM.

Consider B30, for which the Kd is 9.3 ± 2.9 nM.

On to B31, for which the dissociation constant Kd was found to be 48 ± 16 nM.

As to B32, binding was put at a Kd of 7.45 ± 1 nM.

For orientation: Kd means the free concentration of one partner at which half of the binding sites on the other are occupied at equilibrium, for simple one-to-one binding. A high value points to lower affinity.
